Reference: patent US8084228B2, “Nogo-B receptor antagonists” (Yale University, priority 2006, dated 2011)
“Also recorded” adds a separate entry of the source. d = 2'-deoxy (DNA)

T1: full-length NgBR (Homo sapiens, UniProt Q96E22)
T1 construct: expressed in transfected cells
T1 sequence (Q96E22 1-293): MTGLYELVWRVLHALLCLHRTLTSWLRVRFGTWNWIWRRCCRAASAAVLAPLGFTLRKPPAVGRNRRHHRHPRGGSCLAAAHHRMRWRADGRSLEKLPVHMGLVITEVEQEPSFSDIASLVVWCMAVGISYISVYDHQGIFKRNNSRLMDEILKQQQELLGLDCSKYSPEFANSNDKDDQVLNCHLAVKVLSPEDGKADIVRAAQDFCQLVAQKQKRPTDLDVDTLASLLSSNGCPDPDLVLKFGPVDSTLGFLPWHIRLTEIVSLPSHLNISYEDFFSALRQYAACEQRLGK

T2: Nogo receptor (Homo sapiens, UniProt Q9BZR6)
T2 construct: expressed in transfected cells; host or cells: COS-7
T2 sequence (Q9BZR6 27-447): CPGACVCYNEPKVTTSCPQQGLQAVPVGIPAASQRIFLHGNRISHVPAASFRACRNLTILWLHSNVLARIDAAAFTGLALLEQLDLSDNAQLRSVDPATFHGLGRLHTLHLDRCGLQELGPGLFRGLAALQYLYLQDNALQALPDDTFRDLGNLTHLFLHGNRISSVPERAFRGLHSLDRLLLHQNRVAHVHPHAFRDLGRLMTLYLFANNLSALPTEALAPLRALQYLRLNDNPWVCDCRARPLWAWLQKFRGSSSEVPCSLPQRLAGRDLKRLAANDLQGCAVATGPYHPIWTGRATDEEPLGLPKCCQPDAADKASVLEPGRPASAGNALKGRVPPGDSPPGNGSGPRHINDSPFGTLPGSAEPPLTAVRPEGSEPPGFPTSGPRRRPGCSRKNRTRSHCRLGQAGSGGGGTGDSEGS

T3: NgBR (Homo sapiens, UniProt Q96E22)
T3 sequence (Q96E22 1-293): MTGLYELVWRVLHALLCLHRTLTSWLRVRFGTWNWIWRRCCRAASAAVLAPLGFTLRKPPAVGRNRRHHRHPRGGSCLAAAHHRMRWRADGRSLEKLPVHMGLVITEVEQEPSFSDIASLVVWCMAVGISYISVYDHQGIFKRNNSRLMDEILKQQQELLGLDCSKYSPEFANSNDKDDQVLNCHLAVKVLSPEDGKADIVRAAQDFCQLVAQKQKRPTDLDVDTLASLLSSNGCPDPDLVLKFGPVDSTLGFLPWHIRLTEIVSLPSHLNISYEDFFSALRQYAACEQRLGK


Tests used:
[1] = test system: NgBR mRNA; test: NgBR mRNA by quantitative PCR after siRNA transfection of HUVEC; assay type: cell-based, human; settings: 72 hours after transfection, normalized to 18S
Protocol: (§1) NgBR siRNA oligonucleotides (SEQ ID NOS:2-5) with 3′ dTdT overhangs were synthesized by Qiagen. Control siRNA in experiments refers to a nonsilencing (NS) siRNA (NS forward: UUCUCCGAACGUGUCACGU, SEQ ID NO:7; NS reverse: ACGUGACACGUUCGGAGAA, SEQ ID NO:8) designed and synthesized by Qiagen. HUVEC and CHO stable cell lines were transfected with siRNA by using Oligofectamine. Quantification of NgBR mRNA and protein, ligand binding assay, and migration assay were performed at 72 hours after transfection.
Total RNA from cells was isolated by using the RNeasy kit (Qiagen). Reverse transcription was then performed by using 100 ng of RNA and the Superscript First-Strand Synthesis System kit (Invitrogen). Real-time PCR analysis was done with the iCycler iQ detection system using the iQ SYBR green Supermix kit (Bio-Rad). The NgBR mRNA level was normalized by housekeeping gene 18S. The following primers were used for NgBR: forward, 5′-[…]-3′ (SEQ ID NO:9) and reverse, 5′-[…]-3′ (SEQ ID NO:10). The following primers were used for 18S: forward, 5′-[…]-3′ (SEQ ID NO:11) and reverse, 5′-[…]-3′ (SEQ ID NO:12).

[2] = test system: NgBR protein; test: NgBR protein level after siRNA transfection of HUVEC; assay type: cell-based, human; settings: 72 hours after transfection
Protocol: Single NgBR cDNA clones were isolated by sib selection and sequenced. A NgBR-HA was created in pIRESneo vector (BD, Palo Alto, Calif.), with the HA tag at the carboxy terminus. To access the physical interaction of NgBR with Am-Nogo-B, 50 μg of solubilized extracts of CHO cells expressing control vector (pIRESneo) or NgBR-HA was incubated with 25 μg of purified Am-Nogo-B or buffer for 2 hours at room temperature. The HA-tagged NgBR was immunoisolated with anti-HA immunobeads (Roche, Indianapolis, Ind.) and associated proteins analyzed by Western blotting. For the Western blots, expression of NgBR-HA was detected by using anti-HA (Roche) and NgBR (Imgenex), respectively, and beta-actin (Sigma) or Hsp90 (BD Biosciences-Pharmingen) was used to control for loading.
as §1

[3] = test system: HUVEC; test: AP-Am-Nogo-B binding to HUVEC after siRNA transfection; assay type: cell-based, human; settings: 72 hours after siRNA transfection
Protocol: (§2) To detect AP-Am-Nogo-B binding, cultures were washed with Hanks' balanced salt solution (HBSS) containing 20 mM HEPES, pH 7.5, and 1 mg/mL BSA (HBH). The plates were then incubated with AP-Am-Nogo-B in DMEM containing 20 mM Hepes, pH 7.5, and 1 mg/mL BSA for 2 hours at 4° C. The bound AP-Am-Nogo-B was detected by using the Blue Substrate kit (Vector Laboratories). The blue staining was examined by using the ODYSSEY Infrared Imaging System (Li-Cor, Lincoln, Nebr.) and confirmed by microscopy. Alternatively, the bound AP-Am-Nogo-B was extracted with Triton X-100, and AP activity was colorimetrically quantified by using p-nitrophenyl phosphate (Sigma) as substrate after heat inactivation of endogenous AP. Non-specific binding was determined by measuring binding in the presence of a 100-fold molar excess of recombinant Am-Nogo-B lacking the AP fusion protein. Specific binding was determined by subtracting the non-specific binding from total binding. For determination of apparent Kd, the binding of AP-Am-Nogo-B was measured in triplicate as described above and the Kd value was quantified by using the Scatchard plot program of GraphPad PRISM (one-site binding, linear regression) using the ratio of bound ligand to free ligand as the y axis and bound ligand (pM) as the x axis.
as §1

[4] = test system: HUVEC; test: Am-Nogo-B-mediated chemotaxis of HUVEC after siRNA transfection; assay type: cell-based, human; settings: 72 hours after siRNA transfection
Protocol: (§3) Cell migration was examined in modified Boyden chambers using 10 nM each of purified recombinant AP, AP fusion of Nogo-66 (AP-Nogo-66) or Am-Nogo-B. The transwell inserts (Costar transwell inserts; Corning) were coated with a solution of 0.1% gelatin (Sigma) in PBS at 4° C. overnight and then air-dried. VEGF at 50 ng/mL (1.1 nM) or recombinant Am-Nogo-B at various concentrations dissolved in medium 199 containing 0.1% BSA was added in the bottom chamber of the Boyden apparatus. HUVEC (200,000 cells) suspended in a 100 μL aliquot of medium 199 containing 0.1% BSA was added to the upper chamber. After 5 hours incubation, cells on both sides of the membrane were fixed and stained with a Diff-Quik staining kit (Baxter Healthcare, Miami, Fla.). The average number of cells from five randomly chosen high-power (×400) fields on the lower side of the membrane was counted.
as §1

[5] = biological target: T1, full-length NgBR; test: AP-Am-Nogo-B binding after S2 siRNA in cells expressing the full-length NgBR; assay type: cell-based
Protocol: as §2
NgBR siRNA oligonucleotides (SEQ ID NOS:2-5) with 3′ dTdT overhangs were synthesized by Qiagen. […]

[6] = test system: HUVEC; test: Tube formation of HUVEC in 3-D collagen cultures (total network length); assay type: cell-based, human; settings: Am-Nogo-B 80 nM, HUVEC treated with siRNA
Protocol: HUVEC were resuspended (final concentration of 1×10^6) in a mixture containing rat tail type I collagen (1.5 mg/mL) 1/10 volume of 10×M199 and 1 M Hepes, neutralized with NaOH. Droplets (0.1 mL each) of the cell/collagen mixture were placed in cell culture dishes and allowed to polymerize for 15 minutes at 37° C. Growth medium containing either vehicle or agonist was then added to each well. HUVEC were allowed to form tube-like structures for 1-2 days. To evaluate tube formation in 3-D cultures, cells were photographed using the program OPENLAB (Improvision) and total-network length, defined as an elongation of cell into tube-like structures typically seen in 3-D cultures, was quantified in five fields for each replicate per experiment by using the measurement tools provided with OPENLAB.

[7] = test system: HUVEC; test: HUVEC migration in modified Boyden chambers; assay type: cell-based, human; settings: 10 nM purified recombinant protein, 5 hours
Protocol: The migratory response of human umbilical vein endothelial cells (HUVEC) in response to a gradient of recombinant, purified alkaline phosphatase (AP) fusion protein expressing Am-Nogo-B or a recombinant purified Am-Nogo-B was examined. HUVEC were cultured in M199 with 20% FBS and endothelial cell growth supplement (ECGS).
as §3

[8] = test system: HUVEC; test: Binding of AP fusion proteins to the surface of HUVEC; set-up: species or system human; settings: HUVEC (FIGS. 12, 15)
Protocol: as §2

[9] = biological target: T2, Nogo receptor; test: AP fusion protein binding to COS cells transfected with cDNA encoding the Nogo receptor; settings: COS cells (FIG. 6)
Protocol: as §2
(§4) For expression cloning of Am-Nogo-B receptor, pools of 5,000 arrayed clones from a human heart cDNA library (OriGene Technologies, Rockville, Md.) were transfected into COS-7 cells, and AP-Am-Nogo-B binding was assessed by using AP versus AP-Am-Nogo-B binding and detection of the AP product by near-infrared cell imaging (Li-Cor, Lincoln, Nebr.) or AP activity assays.

[10] = test system: CHO cells; test: AP fusion protein binding to untransfected CHO cells
Protocol: as §2

[11] = biological target: T3, NgBR; test: AP fusion protein binding to CHO cells expressing NgBR; set-up: an isolated cDNA encoding NgBR is 2,636 base pairs encoding an open reading frame of 293 amino acids; expressed in transfected cells; settings: for surface binding of AP fusion domains to NgBR-expressing cells: CHO cells expressing NgBR (FIGS. 11, 14); for binding to CHO cells stably expressing NgBR: increasing concentrations, 2 hours at 4° C.
Protocol: as §2
A recombinant AP-Am-Nogo-B fusion protein was used to screen a cDNA expression library from human heart (500,000 independent clones) transfected into COS or CHO cells using Lipofectamine 2000 (Invitrogen). COS-7 cells were cultured in high-glucose DMEM with 10% FBS. CHO cells were cultured in MEM-α with 5% FBS.

[12] = biological target: T3, NgBR; test: AP fusion protein binding to COS cells transfected with the isolated NgBR cDNA; set-up: an isolated cDNA encoding NgBR is 2,636 base pairs encoding an open reading frame of 293 amino acids; expressed in transfected cells; host or cells: COS-7 (A4); settings: COS cells (FIG. 6)
Protocol: as §2, §4
Single NgBR cDNA clones were isolated by sib selection and sequenced. […] The HA-tagged NgBR was immunoisolated with anti-HA immunobeads (Roche, Indianapolis, Ind.) and associated proteins analyzed by Western blotting. For the Western blots, expression of NgBR-HA was detected by using anti-HA (Roche) and NgBR (Imgenex), respectively, and beta-actin (Sigma) or Hsp90 (BD Biosciences-Pharmingen) was used to control for loading.

Molecule | level of NgBR mRNA [1] | NgBR protein level [2] | binding of AP-Am-Nogo-B to HUVEC [3] | Am-Nogo-B-mediated chemotaxis of HUVEC [4] | binding of AP-Am-Nogo-B in cells expressing the full-length NgBR [5] | Am-Nogo-B-stimulated increase in tube formation after siRNA [6] | HUVEC migration [7] | surface binding of AP fusion domains to HUVEC [8] | binding to COS cells transfected with Nogo receptor cDNA [9] | binding to CHO cells [10] | surface binding of AP fusion domains to NgBR-expressing cells [11] | binding to CHO cells stably expressing NgBR [11] | binding to COS cells transfected with the isolated NgBR cDNA [12]
S1: siRNA targeting the coding region of NgBR mRNA; forward CCAGAAUUUGCAAAUAGUA, reverse UACUAUUUGCAAAUUCUGG (SEQ ID NO: 2, 3) (3' dTdT, sugars by position and backbone not given here) | downregulates | down-regulates | reduces |  |  |  |  |  |  |  |  |  | 
S2: siRNA targeting the 3' untranslated region of NgBR; forward GGAAAUACAUAGACCUACA, reverse UGUAGGUCUAUGUAUUUCC (SEQ ID NO: 4, 5) (3' dTdT, sugars by position and backbone not given here) | reduced | reduced | reduced | abolished | reduced | attenuated |  |  |  |  |  |  | 
alkaline phosphatase (protein, UniProt P05187 23-506, looked up, purified recombinant alkaline phosphatase, control for AP fusion proteins) Alkaline phosphatase, …: IIPVEEENPDFWNREAAEALGAAKKLQPAQTAAKNLIIFLGDGMGVSTVTAARILKGQKKDKLGPEIPLAMDRFPYVALSKTYNVDKHVPDSGATATAYLCGVKGNFQTIGLSAAARFNQCNTTRGNEVISVMNRAKKAGKSVGVVTTTRVQHASPAGTYAHTVNRNWYSDADVPASARQEGCQDIATQLISNMDIDVILGGGRKYMFRMGTPDPEYPDDYSQGGTRLDGKNLVQEWLAKRQGARYVWNRTELMQASLDPSVTHLMGLFEPGDMKYEIHRDSTLDPSLMEMTEAALRLLSRNPRGFFLFVEGGRIDHGHHESRAYRALTETIMFDDAIERAGQLTSEEDTLSLVTADHSHVFSFGGYPLRGSSIFGLAPGKARDRKAYTVLLYGNGPGYVLKDGARPDVTESESGSPEYRQQSAVPLDEETHAGEDVAVFARGPQAHLVHGVQEQTFIAHVMAFAACLEPYTACDLAPPAGTTD |  |  |  |  |  |  | does not promote | did not bind | do not bind | minimal binding | did not bind | not | not
AP-Am-Nogo-B: purified alkaline phosphatase (AP) fusion protein with residues 1-200 at the amino terminus of Nogo-B (protein, left off: small tags and cut ends; large carriers, purified alkaline phosphatase (AP) fusion protein with residues 1-200 at the amino terminus of Nogo-B) MEDLDQSPLVSSSDSPPRPQPAFKYQFVREPEDEEEEEEEEEEDEDEDLEELEVLERKPAAGLSAAPVPTAPAAGAPLMDFGNDFVPPAPRGPLPAAPPVAPERQPSWDPSPVSSTVPAPSPLSAAAVSPSKLPEDDEPPARPPPPPPASVSPQAEPVWTPPAPAPAAPPSTPAAPKRRGSSGSVVVDLLYWRDIKKTGV |  |  |  |  |  |  |  | did | do not bind | minimal binding | did | permits the binding; also recorded: permitted binding | 
